Measured values taken from US20050233963A1 (SCIENCE AND TECHNOLOGY CORPORATION UNM, published 2005).

B1: GST-UBP C1/2 (a.a. 145-313) (other, UniProt O43765 145-313, looked up)
chain: VQDCERAICIDPAYSKAYGRMGLALSSLNKHVEAVAYYKKALELDPDNETYKSNLKIAELKLREAPSPTGGVGSFDIAGLLNNPGFMSMASNLMNNPQIQQLMSGMISGGNNPLGTPGTSPSQNDLASLIQAGQQFAQQMQQQNPELIEQLRSQIRSRTPSASNDDQQE
notes: also called C/2; not shown: glutathione S-transferase (GST) fusion partner
B2: GST-UBP N1/2 (a.a. 1-145) (other, UniProt O43765 1-145, looked up)
chain: MDNKKRLAYAIIQFLHDQLRHGGLSSDAQESLEVAIQCLETAFGVTVEDSDLALPQTLPEIFEAAATGKEMPQDLRSPARTPPSEEDSAEAERLKTEGNEQMKVENFEAAVHFYGKAIELNPANAVYFCNRAAAYSKLGNYAGAV
notes: not shown: glutathione S-transferase (GST) fusion partner

Assays:
[1] = target: T1, hsc70 (constitutively expressed form of hsp70) (UniProt P11142 1-646); assay: far-western, GST fusion probe on blotted 20 ng protein
T1 construct: also called hs70 (printed for both hsp70 and hsc70); pure hsc70
T1 sequence (P11142 whole entry, the tested form may be a part): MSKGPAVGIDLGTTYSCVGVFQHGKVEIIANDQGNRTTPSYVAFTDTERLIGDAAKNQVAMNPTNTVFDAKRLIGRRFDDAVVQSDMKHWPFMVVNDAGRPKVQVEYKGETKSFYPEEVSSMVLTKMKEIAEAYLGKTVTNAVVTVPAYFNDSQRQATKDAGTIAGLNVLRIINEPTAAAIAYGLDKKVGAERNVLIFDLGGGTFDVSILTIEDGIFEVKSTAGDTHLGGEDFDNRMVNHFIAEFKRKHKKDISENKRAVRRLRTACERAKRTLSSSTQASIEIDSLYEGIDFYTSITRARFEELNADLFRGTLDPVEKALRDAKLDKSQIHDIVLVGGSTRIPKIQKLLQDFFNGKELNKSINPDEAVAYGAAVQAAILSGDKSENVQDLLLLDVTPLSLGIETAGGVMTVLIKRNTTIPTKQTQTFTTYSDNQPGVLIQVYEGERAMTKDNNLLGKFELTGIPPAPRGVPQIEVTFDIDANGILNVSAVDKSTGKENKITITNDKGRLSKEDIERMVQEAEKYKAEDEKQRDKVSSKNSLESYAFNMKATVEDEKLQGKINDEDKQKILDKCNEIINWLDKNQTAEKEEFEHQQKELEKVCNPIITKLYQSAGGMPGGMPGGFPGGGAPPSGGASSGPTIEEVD

[2] = target: T2, hsp70 (heat shock protein 70) (UniProt P0DMV8 1-641); assay: as above
T2 construct: also called hs70 (printed for both hsp70 and hsc70); pure hsp70
T2 sequence (P0DMV8 whole entry): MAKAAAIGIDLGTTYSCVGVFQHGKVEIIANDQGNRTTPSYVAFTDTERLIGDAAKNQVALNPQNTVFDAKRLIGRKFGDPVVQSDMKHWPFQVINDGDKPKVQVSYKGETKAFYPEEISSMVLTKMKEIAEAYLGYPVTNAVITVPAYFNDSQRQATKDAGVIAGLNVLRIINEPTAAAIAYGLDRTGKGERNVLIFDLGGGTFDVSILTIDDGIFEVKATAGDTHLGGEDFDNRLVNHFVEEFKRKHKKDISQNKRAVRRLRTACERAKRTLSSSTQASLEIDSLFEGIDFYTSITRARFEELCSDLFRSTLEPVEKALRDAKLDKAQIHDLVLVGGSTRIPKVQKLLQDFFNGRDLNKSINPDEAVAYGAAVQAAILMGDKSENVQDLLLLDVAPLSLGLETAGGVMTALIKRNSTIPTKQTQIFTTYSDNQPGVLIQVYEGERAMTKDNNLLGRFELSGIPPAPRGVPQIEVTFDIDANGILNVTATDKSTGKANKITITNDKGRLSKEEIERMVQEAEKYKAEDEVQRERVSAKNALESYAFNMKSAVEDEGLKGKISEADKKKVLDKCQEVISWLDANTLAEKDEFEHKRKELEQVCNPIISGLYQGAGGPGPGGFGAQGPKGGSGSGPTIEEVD

| Binder | binding result [1] | binding result [2] |
| --- | --- | --- |
| B1 | no binding | no binding |
| B2 | no binding | no binding |
